B1: human LACTB (residues 97 to 547) with the L15 loop (V467 to Y482) replaced by a GGS linker (enzyme)
chain: APPCSRCFARAIESSRDLLHRIKDEVGAPGIVVGVSVDGKEVWSEGLGYADVENRVPCKPETVMRIASISKSLTMVALAKLWEAGKLDLDIPVQHYVPEFPEKEYEGEKVSVTTRLLISHLSGIRHYEKDIKKVKEEKAYKALKMMKENVAFEQEKEGKSNEKNDFTKFKTEQENEAKCRNSKPGKKKNDFEQGELYLREKFENSIESLRLFKNDPLFFKPGSQFLYSTFGYTLLAAIVERASGCKYLDYMQKIFHDLDMLTTVQEENEPVIYNRARFYVYNKKKRLVNTPYVDNSYKWAGGGFLSTVGDLLKFGNAMLYGYQVGLFKNSNENLLPGYLKPETMVMMWTPVPNTEMSWDKEGKYAMAWGVGGSASHTGGAVGASSVLLVLPEELDTETINNKVPPRGIIVSIICNMQSVGLNSTALKIALEFDKDRSD
notes: human LACTB, residues 97 up to the residue before V467; glycine-glycine-serine (GGS) linker in place of V467 to Y482; human LACTB, from the residue after Y482 to 547; also called L15 loop replacement; removal of the L15 loop; source: E. coli BL21(DE3)-RIPL, purified (Ni-NTA, tag removed with Ulp1, SEC on Superose 6 Increase); not shown: His6, N-terminal, cleaved; SUMO, N-terminal, cleaved
B2: human LACTB (residues 97 to 547) with the flexible loop region (residues K255 to K284) replaced by a GGS linker (enzyme)
chain: APPCSRCFARAIESSRDLLHRIKDEVGAPGIVVGVSVDGKEVWSEGLGYADVENRVPCKPETVMRIASISKSLTMVALAKLWEAGKLDLDIPVQHYVPEFPEKEYEGEKVSVTTRLLISHLSGIRHYEKDIKKVKEEKAYKALKMMKENVAFEQEKEGGGSNDFEQGELYLREKFENSIESLRLFKNDPLFFKPGSQFLYSTFGYTLLAAIVERASGCKYLDYMQKIFHDLDMLTTVQEENEPVIYNRARFYVYNKKKRLVNTPYVDNSYKWAGGGFLSTVGDLLKFGNAMLYGYQVGLFKNSNENLLPGYLKPETMVMMWTPVPNTEMSWDKEGKYAMAWGVVERKQTYGSCRKQRHYASHTGGAVGASSVLLVLPEELDTETINNKVPPRGIIVSIICNMQSVGLNSTALKIALEFDKDRSD
notes: human LACTB, residues 97 up to the residue before K255; GGS linker in place of K255 to K284; human LACTB, from the residue after K284 to 547; also called ΔL6; flexible loop deletion; source: E. coli BL21(DE3)-RIPL, purified (Ni-NTA, tag removed with Ulp1, SEC on Superose 6 Increase); not shown: His6, N-terminal, cleaved; SUMO, N-terminal, cleaved
B3: human LACTB (residues 97 to 547) R117E (enzyme, UniProt P83111 97-547, looked up)
chain: APPCSRCFARAIESSRDLLHEIKDEVGAPGIVVGVSVDGKEVWSEGLGYADVENRVPCKPETVMRIASISKSLTMVALAKLWEAGKLDLDIPVQHYVPEFPEKEYEGEKVSVTTRLLISHLSGIRHYEKDIKKVKEEKAYKALKMMKENVAFEQEKEGKSNEKNDFTKFKTEQENEAKCRNSKPGKKKNDFEQGELYLREKFENSIESLRLFKNDPLFFKPGSQFLYSTFGYTLLAAIVERASGCKYLDYMQKIFHDLDMLTTVQEENEPVIYNRARFYVYNKKKRLVNTPYVDNSYKWAGGGFLSTVGDLLKFGNAMLYGYQVGLFKNSNENLLPGYLKPETMVMMWTPVPNTEMSWDKEGKYAMAWGVVERKQTYGSCRKQRHYASHTGGAVGASSVLLVLPEELDTETINNKVPPRGIIVSIICNMQSVGLNSTALKIALEFDKDRSD
notes: human LACTB, residues 97 to 547, polymer interface 1 charge-reversal mutant; source: E. coli BL21(DE3)-RIPL, purified (Ni-NTA, tag removed with Ulp1, SEC on Superose 6 Increase); not shown: His6, N-terminal, cleaved; SUMO, N-terminal, cleaved
B4: human LACTB (residues 97 to 547) 259EAxAxEAE266 mutant (enzyme, UniProt P83111 97-547, looked up)
chain: APPCSRCFARAIESSRDLLHRIKDEVGAPGIVVGVSVDGKEVWSEGLGYADVENRVPCKPETVMRIASISKSLTMVALAKLWEAGKLDLDIPVQHYVPEFPEKEYEGEKVSVTTRLLISHLSGIRHYEKDIKKVKEEKAYKALKMMKENVAFEQEKEGKSNEEADATEAETEQENEAKCRNSKPGKKKNDFEQGELYLREKFENSIESLRLFKNDPLFFKPGSQFLYSTFGYTLLAAIVERASGCKYLDYMQKIFHDLDMLTTVQEENEPVIYNRARFYVYNKKKRLVNTPYVDNSYKWAGGGFLSTVGDLLKFGNAMLYGYQVGLFKNSNENLLPGYLKPETMVMMWTPVPNTEMSWDKEGKYAMAWGVVERKQTYGSCRKQRHYASHTGGAVGASSVLLVLPEELDTETINNKVPPRGIIVSIICNMQSVGLNSTALKIALEFDKDRSD
notes: human LACTB, residues 97 to 547, motif 259KNxFxKFK266 changed to 259EAxAxEAE266; single changes counted out from the printed motifs; source: E. coli BL21(DE3)-RIPL, purified (Ni-NTA, tag removed with Ulp1, SEC on Superose 6 Increase); not shown: His6, N-terminal, cleaved; SUMO, N-terminal, cleaved
B5: human LACTB (residues 97 to 547) 274ExExxExxEEE284 mutant (enzyme, UniProt P83111 97-547, looked up)
chain: APPCSRCFARAIESSRDLLHRIKDEVGAPGIVVGVSVDGKEVWSEGLGYADVENRVPCKPETVMRIASISKSLTMVALAKLWEAGKLDLDIPVQHYVPEFPEKEYEGEKVSVTTRLLISHLSGIRHYEKDIKKVKEEKAYKALKMMKENVAFEQEKEGKSNEKNDFTKFKTEQENEAECENSEPGEEENDFEQGELYLREKFENSIESLRLFKNDPLFFKPGSQFLYSTFGYTLLAAIVERASGCKYLDYMQKIFHDLDMLTTVQEENEPVIYNRARFYVYNKKKRLVNTPYVDNSYKWAGGGFLSTVGDLLKFGNAMLYGYQVGLFKNSNENLLPGYLKPETMVMMWTPVPNTEMSWDKEGKYAMAWGVVERKQTYGSCRKQRHYASHTGGAVGASSVLLVLPEELDTETINNKVPPRGIIVSIICNMQSVGLNSTALKIALEFDKDRSD
notes: human LACTB, residues 97 to 547, motif 274KxRxxKxxKKK284 changed to 274ExExxExxEEE284; single changes counted out from the printed motifs; source: E. coli BL21(DE3)-RIPL, purified (Ni-NTA, tag removed with Ulp1, SEC on Superose 6 Increase); not shown: His6, N-terminal, cleaved; SUMO, N-terminal, cleaved
B6: human LACTB (residues 97 to 547), wild-type (enzyme, UniProt P83111 97-547, looked up)
chain: APPCSRCFARAIESSRDLLHRIKDEVGAPGIVVGVSVDGKEVWSEGLGYADVENRVPCKPETVMRIASISKSLTMVALAKLWEAGKLDLDIPVQHYVPEFPEKEYEGEKVSVTTRLLISHLSGIRHYEKDIKKVKEEKAYKALKMMKENVAFEQEKEGKSNEKNDFTKFKTEQENEAKCRNSKPGKKKNDFEQGELYLREKFENSIESLRLFKNDPLFFKPGSQFLYSTFGYTLLAAIVERASGCKYLDYMQKIFHDLDMLTTVQEENEPVIYNRARFYVYNKKKRLVNTPYVDNSYKWAGGGFLSTVGDLLKFGNAMLYGYQVGLFKNSNENLLPGYLKPETMVMMWTPVPNTEMSWDKEGKYAMAWGVVERKQTYGSCRKQRHYASHTGGAVGASSVLLVLPEELDTETINNKVPPRGIIVSIICNMQSVGLNSTALKIALEFDKDRSD
notes: human LACTB (serine beta-lactamase-like protein, mitochondrial), residues 97 to 547 of the gene product of residues 1 to 547; Assembles into helical filaments of stacked antiparallel dimers; number of copies not fixed; also called WT LACTB; serine beta-lactamase-like protein; source: E. coli BL21(DE3)-RIPL, purified (Ni-NTA, tag removed with Ulp1, SEC on Superose 6 Increase); not shown: His6, …

The first data set deals with the molecule itself. Put plainly: negative-stain TEM; SEC peak fractions diluted to approximately 2.0 μm (so in the source), 0.75% uranyl formate, Tecnai T12 at 100 kV; self-assembly into filaments.
For the protein B1, the binding result is on record as “binds”. Consider B2, for which the binding result was “binds”. The same measure, in the same setting: the entry for B3 is “binds”. Take B4: the binding result was “binds”.

As for B5, the binding result was “binds”.

Another data set concerns the molecule itself. Put plainly: SEC; Superose 6 Increase 10/300 GL; 20 mM HEPES-NaOH (pH 7.5), 140 mM NaCl, 10 mM KCl, 1 mM MgCl2, 1 mM DTT; self-assembly, filaments elute within the void volume. A general note: SEC sorts molecules by how far they enter the pores of the column.
B6: the binding result is “binds”.

The values above are taken from PMC9815587, “The structure of the human LACTB filament reveals the mechanisms of assembly and membrane binding” (PLOS Biology, 2022).
